Experimental data from patent US20050124036.

Tested on: plasminogen according to the present invention (20 mg/ml, Example 8)

| Substance | plasmin activity after activation |
| --- | --- |
| Trypsin | 11 kU/mg |
| Protease from S. griseus | 613.3 U/mg |
| Proteinase A | 0.02 U/mg |
| Thrombin | 83.0 U/mg |
| Endoproteinase Asp-N | 4.3 U/mg |
| Protease XVIII | 0.7 U/mg |
| Endoproteinase Glu-C | 0.6 U/mg |
| Protease XIII | 0.01 U/mg |
| Elastase | 0.63 U/mg |
| Protease VIII | 9 U/mg |
| Ficin | 0.01 U/mg |
